# Results published in US11324804B2, “Combined CD6 and imipenem therapy for treatment of infectious diseases and related inflammatory processes” (Sepsia Therapeutics, S.L., priority 2016, dated 2022).
# B1: rshCD6: recombinantly obtained soluble human CD6 ectodomain (SEQ ID NO: 1) (protein, listed as Homo sapiens)
# chain: DQLNTSSAESELWEPGERLPVRLTNGSSSCSGTVEVRLEASWEPACGALWDSRAAEAVCRALGCGGAEAASQLAPPTPELPPPPAAGNTSVAANATLAGAPALLCSGAEWRLCEVVEHACRSDGRRARVTCAENRALRLVDGGGACAGRVEMLEHGEWGSVCDDTWDLEDAHVVCRQLGCGWAVQALPGLHFTPGRGPIHRDQVNCSGAEAYLWDCPGLPGQHYCGHKEDAGVVCSEHQSWRLTGGADRCEGQVEVHFRGVWNTVCDSEWYPSEAKVLCQSLGCGTAVERPKGLPHSLSGRMYYSCNGEELTLSNCSWRFNNSNLCSQSLAARVLCSASRSLHNLSTPEVPASVQTVTIESSVTVKIENKESR
# B2: rshCD5: purified recombinant soluble human CD5 protein, used as comparison protein (protein, UniProt P06127 25-372, looked up)
# extracellular domain: RLSWYDPDFQARLTRSNSKCQGQLEVYLKDGWHMVCSQSWGRSSKQWEDPSQASKVCQRLNCGVPLSLGPFLVTYTPQSSIICYGQLGSFSNCSHSRNDMCHSLGLTCLEPQKTTPPTTRPPPTTTPEPTAPPRLQLVAQSGGQHCAGVVEFYSGSLGGTISYEAQDKTQDLENFLCNNLQCGSFLKHLPETEAGRAQDPGEPREHQPLPIQWKIQNSSCTSLEHCFRKIKPQKSGRVLALLCSGFQPKVQSRLVGGSSICEGTVEVRQGAQWAALCDSSSARSSLRWEEVCREQQCGSVNSYRVLDAGDPTSRGLFCPHQKLSQCHELWERNSYCKKVFVTCQDPNP
# modifications: extracellular domain
# Columns and labels:
# [1] = system: pro- (TNF-α, IL-1β, IL-6) and anti- (IL-10) inflammatory cytokines; assay: ELISA of cytokine plasma levels post CLP-induced septic shock; assay type: in vivo, C57BL/6J mice
# Method: (§1) Plasma levels of rshCD6 were determined by sandwich ELISA, using unlabelled (161.8) and biotin-labelled (SPV-L14.2) anti-CD6 monoclonal antibodies (2 μg/mL, each) as capture and detection antisera, respectively. Serial dilutions of purified rshCD6 were used as a standard. Diluted or undiluted plasma samples were used for monitoring IL-6 (1:70; Mouse IL-6 ELISA Set, BD Bioscience-555240), TNF-α (1:10; Mouse TNF-α ELISA Set, BD Bioscience-558534), IL-10 (neat; Mouse IL-10 ELISA Set, BD Bioscience-555252), and IL-1β (neat; Mouse IL-1β ELISA Set, BD Bioscience-559603) levels by commercially available ELISA kits, following manufacturer's instructions. Plates were developed with horseradish peroxidase-labeled streptavidin (Roche Diagnostics) and TMB Substrate Reagent Set (BD OptEIA, BD Biosciences), and further measurement of optical density at 450 nm (OD450 nm).
# bacterial load = assay: Bacterial load (cfu) post CLP-induced septic shock; assay type: in vivo, C57BL/6J mice
# Method: Blood samples were taken from live mice by facial vein puncture at 4 h post-CLP. Peritoneal, spleen and kidney samples were obtained from euthanized mice at 20 h post-CLP. For peritoneal lavage, euthanized mice were i.p. infused with 3 mL cold PBS. After gently abdominal massaging for 5 min, the peritoneal fluid was collected taking care to avoid clogging by the fat tissue and not to damage internal organs. Blood-contaminated peritoneal samples were discarded. The collected peritoneal fluid was centrifuged (3500 rpm, 10 min at 4° C.) and the pellet resuspended in 200 μL PBS. Spleen (100 mg) and kidney (250 mg) homogenization was performed by pressing the organs with a syringe plunger through a 40 μm cell strainer in 3 mL cold PBS. The resulting homogenates were centrifuged (3500 rpm, 10 min at 4° C.) and pellets resuspended in 750 μL PBS. Serial dilutions of blood, peritoneal lavage, and spleen and kidney homogenates were prepared in sterile PBS for plating on agar with 5% sheep blood (Becton Dikinson, UK) at 37° C. overnight. Viable bacterial counts were expressed as colony-forming units (cfu) per mL or mg.
# [2] = design: species or system C57BL/6J mice; conditions: mouse, in vivo, 1.25 mg/kg
# Method: as §1
# [3] = system: septic shock induced by G+ and G− bacterial endotoxins (LTA+PGN, and LPS) and whole alive bacteria (Staphylococcus aureus, Acinetobacter baumannii); conditions: prophylactic infusion; mouse models of septic shock; cited from earlier work
# LPS-induced septic shock = conditions: intraperitoneal (i.p.) administration, mice; cited from earlier work
# [4] = system: CLP-induced polymicrobial septic shock; assay: Mouse survival after cecal ligation and puncture (CLP)-induced septic shock
# Method: CLP-induced septic shock was induced in 8-10 week old C57BL/6J male mice (20-25 g; Charles River) following previously reported methods (Rittirsch D, et al., 2009. Immunodesign of experimental sepsis by cecal ligation and puncture. Nat Protoc 4:31-36). The severity of the CLP model was adjusted to achieve a high-grade mortality (meaning ≥90% mortality in the first 48-72 h) by ligating 75% of cecum. Mice were anesthetized with 100 mg/kg ketamine (Imalgéne 1000, Merial) and 10 mg/kg xylazine (Rompun, Bayer) subsequently resuscitated with 1 mL saline serum intraperitoneally (i.p.). To mitigate pain effects, 0.05 mg/kg/12 h Buprenorphin was administered subcutaneously. […] Daily weight loss monitoring (usually was of 10-15% in the first 48 h post-CLP) allowed exclusion of animals not undergoing clinical sepsis.
# The survival data were represented in Kaplan-Meier graphs and analysed by the Log-Rank χ^2 test. Statistical significant differences (P<0.01) were determined by 2-tailed non parametric Mann-Whitney test.
# [5] = prophylactic (−1 h) 1.25 mg/kg i.p., +4 h, +20 h post-CLP, FIG. 1C
# [6] = therapeutic (+1 h) 1.25 mg/kg i.p., 4 and 20 h post-CLP, FIG. 2C
# [7] = prophylactic (−1 h) 1.25 mg/kg i.p., FIG. 1D
# [8] = therapeutic (+1 h) 1.25 mg/kg i.p., FIG. 2D
# [9] = single dose 1.25 mg/kg i.p. 1 h before (−1 h) CLP induction, FIG. 1A
molecule,measurement,setting,value
B1,plasma level of IL-1β compared to saline-treated group,[1]; [5],significantly lowered
same,plasma level of IL-6 compared to saline-treated group,[1]; [5],significantly lowered
same,plasma level of IL-10 compared to saline-treated group,[1]; [5],higher levels
same,plasma level of TNF-α compared to saline-treated group,[1]; [5],significantly lowered
same,plasma level of IL-1β compared with saline-treated group,[1]; [6],"lower pro-inflammatory cytokine levels, which reached statistical significance"
same,plasma level of IL-6 compared with saline-treated group,[1]; [6],"lower pro-inflammatory cytokine levels, which reached statistical significance"
same,plasma level of IL-10 compared with saline-treated group,[1]; [6],no differences observed
same,plasma level of TNF-α compared with saline-treated group,[1]; [6],lower pro-inflammatory cytokine levels
same,bacterial load from blood compared to saline-treated group,bacterial load; [7],lowered
same,bacterial load from kidney compared to saline-treated group,bacterial load; [7],lowered
same,bacterial load from spleen compared to saline-treated group,bacterial load; [7],lowered
same,bacterial load (cfu) from blood with regard to saline-treated group,bacterial load; [8],lower cfu
same,bacterial load (cfu) from kidney with regard to saline-treated group,bacterial load; [8],lower cfu
same,bacterial load (cfu) from spleen with regard to saline-treated group,bacterial load; [8],lower cfu
same,maximal plasma levels achieved via i.v. versus via i.p.,[2],higher
same,time of decrease to nearly basal plasma levels,[2]; ip,≤ 6 h
same,time of maximal rshCD6 plasma levels,[2]; ip,3 h
same,time of decline to nearly basal plasma levels,[2]; iv,≤ 6 h
same,time of maximal and sustained plasma levels,[2]; iv,1 to 3 h
same,mortality,[3],significantly reduces
same,"serum levels of pro-inflammatory cytokines (IL-1β, IL-6 and TNF-α)",[3],significantly reduces
same,lethal effects caused by LPS-induced septic shock,LPS-induced septic shock,counteracts the lethal effects
same,prophylactic dose giving statistical significant results on survival,"[4]; i.p. 1 h before CLP, FIG. 1B",above 0.625 mg/kg
same,prophylactic dose reaching maximal efficacy on survival,"[4]; i.p. 1 h before CLP, FIG. 1B",2.5 mg/kg
same,optimal rshCD6 dose in mice,[4]; mice,1.25 to 2.50 mg/kg
same,survival,"[4]; repeated dosage 1.25 mg/kg i.p. at +1 h, +3 h and +6 h post-CLP, FIG. 2B",26.32%
same,survival,[4]; [9],47.06%
same,survival,"[4]; single dose 1.25 mg/kg i.v. at +1 h post-CLP, FIG. 3B",30%
same,survival,"[4]; single dose 1.25 mg/kg i.v. at +3 h post-CLP, FIG. 3B",20%
same,survival,"[4]; single dose 1.25 mg/kg i.v. at +6 h post-CLP, FIG. 3B",40%
same,survival,"[4]; single infusion 1.25 mg/kg i.p. at +1 h post-CLP, FIG. 2A",29.03%
same,survival,"[4]; single infusion 1.25 mg/kg i.p. at +3 h post-CLP, FIG. 2A",14.28%
same,survival,"[4]; single infusion 1.25 mg/kg i.p. at +6 h post-CLP, FIG. 2A",17.65%
B2,survival,[4]; [9],11.11%
